Source: publication PMC3440374, “High Inorganic Triphosphatase Activities in Bacteria and Mammalian Cells: Identification of the Enzymes Involved” (PLoS ONE, 2012)

Columns and labels:
CyaB = molecular target: T1, CyaB (Aeromonas hydrophila, UniProt O69199); assay: inorganic phosphate release, colorimetric; assay type: biochemical; conditions: 0.5 mM substrate, 5 mM Mg2+ or Mn2+, pH 9.1, 50°C
T1 construct: full length from first Met, cloned in PVP16 as 8HIS-MBP fusion, tag removed by TEV digestion; produced in E. coli BL21DE3; nickel column
T1 sequence (O69199 1-191): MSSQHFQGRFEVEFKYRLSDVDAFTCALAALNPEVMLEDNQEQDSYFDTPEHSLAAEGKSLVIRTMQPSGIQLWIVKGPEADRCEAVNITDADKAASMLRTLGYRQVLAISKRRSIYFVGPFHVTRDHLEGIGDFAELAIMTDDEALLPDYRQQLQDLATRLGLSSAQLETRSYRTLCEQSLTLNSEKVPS

[1] = substrate: O=P(O)(O)OP(=O)(O)OP(=O)(O)O; assay: inorganic phosphate release, colorimetric, Michaelis-Menten fit; assay type: biochemical, Escherichia coli; conditions: 5 mM Mg2+, pH 8.5, 50°C
[2] = substrate: O=P(O)(O)OP(=O)(O)OP(=O)(O)O; assay: inorganic phosphate release, colorimetric; assay type: biochemical, Escherichia coli; conditions: 10 mM Mg2+, 50 mM CHES pH 9.1, 25°C

Q: With `Cc1ncc(C[n+]2csc(CCOP(=O)(O)OP(=O)(O)OP(=O)(O)O)c2C)c(N)n1` [ThTP] as the molecule, how does the “inorganic phosphate release, colorimetric” value (CyaB) read?
A: it indeed hydrolyzes substrates such as ATP, ThTP and PPPi but at a low rate

Q: Which “inorganic phosphate release, colorimetric” value (CyaB) does the source give for `O=P(O)(O)OP(=O)(O)OP(=O)(O)O` [PPPi] here?
A: it indeed hydrolyzes substrates such as ATP, ThTP and PPPi but at a low rate

B1: GST-ygiF (Escherichia coli K-12) (protein)
chain: MAQEIELKFIVNHSAVEALRDHLNTLGGEHHDPVQLLNIYYETPDNWLRGHDMGLRIRGENGRYEMTMKVAGRVTGGLHQRPEYNVALSEPTLDLAQLPTEVWPNGELPADLASRVQPLFSTDFYREKWLVAVDGSQIEIALDQGEVKAGEFAEPICELELELLSGDTRAVLKLANQLVSQTGLRQGSLSKAARGYHLAQGNPAREIKPTTILHVAAKADVEQGLEAALELALAQWQYHEELWVRGNDAAKEQVLAAISLVRHTLMLFGGIVPRKASTHLRDLLTQCEATIASAVSAVTAVYSTETAMAKLALTEWLVSKAWQPFLDAKAQGKISDSFKRFADIHLSRHAAELKSVFCQPLGDRYRDQLPRLTRDIDSILLLAGYYDPVVAQAWLENWQGLHHAIATGQRIEIEHFRNEANNQEPFWLHSGKR
notes: produced in E. coli DH5alpha, GSTrap purified
Q: How did the Km [1] turn out when B1 was run?
A: 270 ± 25 µM

B2: EcPPase (Escherichia coli K-12) (protein)
chain: SLLNVPAGKDLPEDIYVVIEIPANADPIKYEIDKESGALFVDRFMSTAMFYPCNYGYINHTLSLDGDPVDVLVPTPYPLQPGSVIRCRPVGVLKMTDEAGEDAKLVAVPHSKLSKEYDHIKDVNDLPELLKAQIAHFFEHYKDLEKGKWVKVEGWENAEAAKAEIVASFERAKNK
notes: commercial purified recombinant preparation (Sigma-Aldrich); 20 kDa per subunit
Q: How did the Km [2] turn out when B2 was run?
A: 910 ± 90 µM

Q: And the kcat [2]?
A: 16.7 s⁻¹
